In publication PMC9482650, “Quantitative fragmentomics allow affinity mapping of interactomes” (Nature Communications, 2022):

What was measured:
Assay in all cases: holdup assay
Design in all cases: key: below the threshold = too weak to quantify, mostly under pKd 3.1 to 4
APBA1_2, Q02410 = target: T1, APBA1_2, Q02410
T1 sequence (Q02410 742-832, limits assumed, looked up): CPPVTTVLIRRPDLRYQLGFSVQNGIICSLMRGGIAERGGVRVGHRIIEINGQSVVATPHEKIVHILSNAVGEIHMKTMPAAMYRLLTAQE

CASK, O14936 = target: CASK, O14936
DLG1_1, Q12959 = target: DLG1_1, Q12959
DLG4_3, P78352 = target: DLG4_3, P78352
FRMPD2_1, Q68DX3 = target: FRMPD2_1, Q68DX3
FRMPD2_2, Q68DX3 = target: FRMPD2_2, Q68DX3
FRMPD2_3, Q68DX3 = target: FRMPD2_3, Q68DX3
GIPC2, Q8TF65 = target: GIPC2, Q8TF65
GORASP1, Q9BQQ3 = target: GORASP1, Q9BQQ3
GRIP1_3, Q9Y3R0 = target: T2, GRIP1_3, Q9Y3R0
T2 sequence (Q9Y3R0 247-346, limits assumed, looked up): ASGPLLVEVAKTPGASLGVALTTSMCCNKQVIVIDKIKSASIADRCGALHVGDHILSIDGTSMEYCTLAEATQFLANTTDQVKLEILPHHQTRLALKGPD

GRIP1_4, Q9Y3R0 = target: T3, GRIP1_4, Q9Y3R0
T3 sequence (Q9Y3R0 467-571, limits assumed, looked up): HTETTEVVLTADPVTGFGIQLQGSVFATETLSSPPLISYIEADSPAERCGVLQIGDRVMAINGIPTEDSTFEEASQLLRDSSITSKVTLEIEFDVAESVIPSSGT

GRIP2_6, Q9C0E4 = target: GRIP2_6, Q9C0E4
GRIP2_7, Q9C0E4 = target: GRIP2_7, Q9C0E4
Inadl_2, Q8NI35 = target: Inadl_2, Q8NI35
LAP2, Q96RT1 = target: LAP2, Q96RT1
LIN7B, Q9HAP6 = target: T4, LIN7B, Q9HAP6
T4 sequence (Q9HAP6 88-185, limits assumed, looked up): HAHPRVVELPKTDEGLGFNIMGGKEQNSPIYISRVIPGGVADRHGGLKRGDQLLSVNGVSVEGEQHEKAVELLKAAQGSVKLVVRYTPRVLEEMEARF

LNX1_1, Q8TBB1 = target: LNX1_1, Q8TBB1
LNX1_3, Q8TBB1 = target: LNX1_3, Q8TBB1
MAGI1_2, Q96QZ7 = target: MAGI1_2, Q96QZ7
MAGI2_4, Q86UL8 = target: MAGI2_4, Q86UL8
MPP6, Q9NZW5 = target: T5, MPP6, Q9NZW5
T5 sequence (Q9NZW5 125-219, limits assumed, looked up): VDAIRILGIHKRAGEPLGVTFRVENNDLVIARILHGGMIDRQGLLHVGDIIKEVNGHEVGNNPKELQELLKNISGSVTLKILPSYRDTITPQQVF

MPP7, Q5T2T1 = target: T6, MPP7, Q5T2T1
T6 sequence (Q5T2T1 134-230, limits assumed, looked up): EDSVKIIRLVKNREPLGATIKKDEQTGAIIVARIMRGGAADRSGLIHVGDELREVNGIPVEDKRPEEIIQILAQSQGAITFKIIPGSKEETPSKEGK

NHERF3_4, Q5T2W1 = target: T7, NHERF3_4, Q5T2W1
T7 sequence (Q5T2W1 373-468, limits assumed, looked up): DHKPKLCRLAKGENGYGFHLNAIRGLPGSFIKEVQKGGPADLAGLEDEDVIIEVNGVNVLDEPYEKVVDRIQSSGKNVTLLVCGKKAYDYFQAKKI

PCLO, Q9Y6V0 = target: T8, PCLO, Q9Y6V0
T8 sequence (Q9Y6V0 4491-4600, limits assumed, looked up): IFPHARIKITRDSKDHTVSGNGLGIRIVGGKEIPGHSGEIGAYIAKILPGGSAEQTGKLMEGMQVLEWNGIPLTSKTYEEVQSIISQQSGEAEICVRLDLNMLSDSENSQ

PDZD2_2, O15018 = target: T9, PDZD2_2, O15018
T9 sequence (O15018 329-429, limits assumed, looked up): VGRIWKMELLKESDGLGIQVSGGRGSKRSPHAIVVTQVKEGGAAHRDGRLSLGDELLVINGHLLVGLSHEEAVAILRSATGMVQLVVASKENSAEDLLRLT

PDZD7_3, Q9H5P4 = target: T10, PDZD7_3, Q9H5P4
T10 sequence (Q9H5P4 857-944, limits assumed, looked up): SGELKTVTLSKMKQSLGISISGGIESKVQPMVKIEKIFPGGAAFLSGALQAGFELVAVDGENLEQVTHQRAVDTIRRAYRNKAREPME

RADIL, Q96JH8 = target: T11, RADIL, Q96JH8
T11 sequence (Q96JH8 971-1071, limits assumed, looked up): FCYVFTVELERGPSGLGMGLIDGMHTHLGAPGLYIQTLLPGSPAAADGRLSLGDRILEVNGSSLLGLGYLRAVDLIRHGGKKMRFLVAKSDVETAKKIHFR

[1] = plain residues with an end cap or a label only (N-terminal biotin on a linker: ahx)
[2] = plain residues with an end cap or a label only (N-terminal biotin on a linker: ado-ado)

Chain of MAGI2_4, Q86UL8 (Q86UL8 772-865): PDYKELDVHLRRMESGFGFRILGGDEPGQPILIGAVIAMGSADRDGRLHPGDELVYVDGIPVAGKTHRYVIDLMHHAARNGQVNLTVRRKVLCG
Chain of LAP2, Q96RT1 (Q96RT1 other isoform, or with tags, fused parts or gaps): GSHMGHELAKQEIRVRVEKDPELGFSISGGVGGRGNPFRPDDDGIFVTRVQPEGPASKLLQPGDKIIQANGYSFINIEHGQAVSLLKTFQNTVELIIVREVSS
Chain of MAGI1_2, Q96QZ7 (Q96QZ7 456-580): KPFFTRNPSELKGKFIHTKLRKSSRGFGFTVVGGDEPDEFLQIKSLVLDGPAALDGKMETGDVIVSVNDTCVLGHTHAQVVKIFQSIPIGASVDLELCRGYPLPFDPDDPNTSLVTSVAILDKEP
Chain of CASK, O14936 (O14936 487-570): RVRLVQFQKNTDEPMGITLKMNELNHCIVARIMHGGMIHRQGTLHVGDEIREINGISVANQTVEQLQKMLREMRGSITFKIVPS
Chain of GRIP2_7, Q9C0E4 (Q9C0E4 934-1023): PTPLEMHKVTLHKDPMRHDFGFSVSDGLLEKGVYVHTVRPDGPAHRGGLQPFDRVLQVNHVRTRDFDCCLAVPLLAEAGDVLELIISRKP
Chain of LNX1_3, Q8TBB1 (Q8TBB1 500-596): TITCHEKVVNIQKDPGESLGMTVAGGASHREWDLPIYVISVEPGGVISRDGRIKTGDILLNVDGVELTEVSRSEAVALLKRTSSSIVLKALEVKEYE
Chain of Inadl_2, Q8NI35 (Q8NI35 238-335): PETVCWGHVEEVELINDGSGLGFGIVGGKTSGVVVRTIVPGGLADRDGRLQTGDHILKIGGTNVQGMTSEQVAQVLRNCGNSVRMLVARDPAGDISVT
Chain of GIPC2, Q8TF65 (Q8TF65 112-203): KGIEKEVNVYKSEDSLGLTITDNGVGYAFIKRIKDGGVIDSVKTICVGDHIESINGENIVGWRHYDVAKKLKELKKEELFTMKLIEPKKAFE
Chain of GRIP2_6, Q9C0E4 (Q9C0E4 648-740): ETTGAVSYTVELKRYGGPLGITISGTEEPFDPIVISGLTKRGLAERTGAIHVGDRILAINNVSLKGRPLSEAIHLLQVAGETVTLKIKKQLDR
Chain of GORASP1, Q9BQQ3 (Q9BQQ3 1-208): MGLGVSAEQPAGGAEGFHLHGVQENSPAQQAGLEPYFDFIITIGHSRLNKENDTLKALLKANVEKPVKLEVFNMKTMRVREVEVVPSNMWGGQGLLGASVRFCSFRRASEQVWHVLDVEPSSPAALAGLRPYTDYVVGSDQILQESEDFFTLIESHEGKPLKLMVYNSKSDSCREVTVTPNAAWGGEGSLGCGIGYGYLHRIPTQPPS
Chain of FRMPD2_3, Q68DX3 (Q68DX3 1073-1166): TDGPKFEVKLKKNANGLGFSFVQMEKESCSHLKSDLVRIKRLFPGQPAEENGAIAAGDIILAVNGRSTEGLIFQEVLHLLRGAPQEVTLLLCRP
Chain of LNX1_1, Q8TBB1 (Q8TBB1 261-371): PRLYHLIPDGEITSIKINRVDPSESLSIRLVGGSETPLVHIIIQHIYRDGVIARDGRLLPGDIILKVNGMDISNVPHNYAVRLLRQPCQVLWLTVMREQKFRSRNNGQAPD
Chain of FRMPD2_2, Q68DX3 (Q68DX3 944-1038): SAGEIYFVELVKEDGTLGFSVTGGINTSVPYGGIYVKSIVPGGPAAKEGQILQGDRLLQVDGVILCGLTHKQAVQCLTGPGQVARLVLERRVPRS
Chain of DLG4_3, P78352 (P78352 306-403): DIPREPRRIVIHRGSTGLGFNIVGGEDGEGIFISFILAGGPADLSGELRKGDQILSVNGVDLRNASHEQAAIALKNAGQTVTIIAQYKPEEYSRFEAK
Chain of FRMPD2_1, Q68DX3 (Q68DX3 770-861): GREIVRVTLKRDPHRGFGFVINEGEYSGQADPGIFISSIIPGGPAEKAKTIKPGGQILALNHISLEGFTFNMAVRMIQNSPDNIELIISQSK

HNAFLSVTTV [PDZRN4, Q6ZMN7]
pKd (APBA1_2, Q02410; [1]): below the threshold | pKd (CASK, O14936; [1]): below the threshold | pKd (DLG1_1, Q12959; [1]): 3.54 | pKd (DLG4_3, P78352; [1]): 3.56 | pKd (FRMPD2_1, Q68DX3; [1]): below the threshold | pKd (FRMPD2_2, Q68DX3; [1]): below the threshold | pKd (FRMPD2_3, Q68DX3; [1]): below the threshold | pKd (GIPC2, Q8TF65; [1]): below the threshold | pKd (GORASP1, Q9BQQ3; [1]): below the threshold | pKd (GRIP1_3, Q9Y3R0; [1]): below the threshold | pKd (GRIP1_4, Q9Y3R0; [1]): below the threshold | pKd (GRIP2_6, Q9C0E4; [1]): 3.56 | pKd (GRIP2_7, Q9C0E4; [1]): below the threshold | pKd (Inadl_2, Q8NI35; [1]): below the threshold | pKd (LAP2, Q96RT1; [1]): below the threshold | pKd (LIN7B, Q9HAP6; [1]): below the threshold | pKd (LNX1_1, Q8TBB1; [1]): below the threshold | pKd (LNX1_3, Q8TBB1; [1]): below the threshold | pKd (MAGI1_2, Q96QZ7; [1]): 3.61 | pKd (MAGI2_4, Q86UL8; [1]): 3.49 | pKd (MPP6, Q9NZW5; [1]): 3.5 | pKd (MPP7, Q5T2T1; [1]): below the threshold | pKd (NHERF3_4, Q5T2W1; [1]): 3.61 | pKd (PCLO, Q9Y6V0; [1]): below the threshold | pKd (PDZD2_2, O15018; [1]): 3.49 | pKd (PDZD7_3, Q9H5P4; [1]): 4.71 | pKd (RADIL, Q96JH8; [1]): 3.61

PLSPEQPTKL [TRIM50, Q86XT4]
pKd (APBA1_2, Q02410; [2]): 4.06 | pKd (CASK, O14936; [2]): below the threshold | pKd (DLG1_1, Q12959; [2]): below the threshold | pKd (DLG4_3, P78352; [2]): below the threshold | pKd (FRMPD2_1, Q68DX3; [2]): below the threshold | pKd (FRMPD2_2, Q68DX3; [2]): below the threshold | pKd (FRMPD2_3, Q68DX3; [2]): below the threshold | pKd (GIPC2, Q8TF65; [2]): below the threshold | pKd (GORASP1, Q9BQQ3; [2]): below the threshold | pKd (GRIP1_3, Q9Y3R0; [2]): below the threshold | pKd (GRIP1_4, Q9Y3R0; [2]): below the threshold | pKd (GRIP2_6, Q9C0E4; [2]): below the threshold | pKd (GRIP2_7, Q9C0E4; [2]): below the threshold | pKd (Inadl_2, Q8NI35; [2]): below the threshold | pKd (LAP2, Q96RT1; [2]): below the threshold | pKd (LIN7B, Q9HAP6; [2]): below the threshold | pKd (LNX1_1, Q8TBB1; [2]): below the threshold | pKd (LNX1_3, Q8TBB1; [2]): below the threshold | pKd (MAGI1_2, Q96QZ7; [2]): below the threshold | pKd (MAGI2_4, Q86UL8; [2]): below the threshold | pKd (MPP6, Q9NZW5; [2]): 3.63 | pKd (MPP7, Q5T2T1; [2]): below the threshold | pKd (NHERF3_4, Q5T2W1; [2]): 3.7 | pKd (PCLO, Q9Y6V0; [2]): below the threshold | pKd (PDZD2_2, O15018; [2]): below the threshold | pKd (PDZD7_3, Q9H5P4; [2]): 4.04 | pKd (RADIL, Q96JH8; [2]): below the threshold

NRKREIFSNF [NHERF2, Q15599]
pKd (APBA1_2, Q02410; [1]): below the threshold | pKd (CASK, O14936; [1]): below the threshold | pKd (DLG1_1, Q12959; [1]): below the threshold | pKd (DLG4_3, P78352; [1]): below the threshold | pKd (FRMPD2_1, Q68DX3; [1]): below the threshold | pKd (FRMPD2_2, Q68DX3; [1]): below the threshold | pKd (FRMPD2_3, Q68DX3; [1]): below the threshold | pKd (GIPC2, Q8TF65; [1]): below the threshold | pKd (GORASP1, Q9BQQ3; [1]): below the threshold | pKd (GRIP1_3, Q9Y3R0; [1]): below the threshold | pKd (GRIP1_4, Q9Y3R0; [1]): below the threshold | pKd (GRIP2_6, Q9C0E4; [1]): below the threshold | pKd (GRIP2_7, Q9C0E4; [1]): below the threshold | pKd (Inadl_2, Q8NI35; [1]): below the threshold | pKd (LAP2, Q96RT1; [1]): below the threshold | pKd (LIN7B, Q9HAP6; [1]): below the threshold | pKd (LNX1_1, Q8TBB1; [1]): below the threshold | pKd (LNX1_3, Q8TBB1; [1]): below the threshold | pKd (MAGI1_2, Q96QZ7; [1]): below the threshold | pKd (MAGI2_4, Q86UL8; [1]): below the threshold | pKd (MPP6, Q9NZW5; [1]): below the threshold | pKd (MPP7, Q5T2T1; [1]): below the threshold | pKd (NHERF3_4, Q5T2W1; [1]): below the threshold | pKd (PCLO, Q9Y6V0; [1]): below the threshold | pKd (PDZD2_2, O15018; [1]): below the threshold | pKd (PDZD7_3, Q9H5P4; [1]): below the threshold | pKd (RADIL, Q96JH8; [1]): below the threshold
